Reference: patent US20160051694A1

Columns and labels:
[1] = molecular target: CD37 (Leukocyte Antigen CD37, Tetraspanin-26) on cells (human) (UniProt P11049); experiment: FACS, 5 ug/mL biotinylated control antibody + streptavidin-PE, HL-60 cells (AML); background control
[2] = molecular target: CD37 (Leukocyte Antigen CD37, Tetraspanin-26) on cells (human) (UniProt P11049); experiment: FACS, 5 ug/mL biotinylated control antibody + streptavidin-PE, THP-1 cells (AML); background control
[3] = molecular target: CD37 (Leukocyte Antigen CD37, Tetraspanin-26) on cells (human) (UniProt P11049); experiment: FACS, 5 ug/mL biotinylated control antibody + streptavidin-PE, REC-1 cells (MCL); background control
[4] = molecular target: CD37 (Leukocyte Antigen CD37, Tetraspanin-26) on cells (human) (UniProt P11049); experiment: FACS, 5 ug/mL biotinylated control antibody + streptavidin-PE, Hel 92.1 cells (AML); filing calls it high isotype control background binding
[5] = molecular target: CD37 (Leukocyte Antigen CD37, Tetraspanin-26) on cells (human) (UniProt P11049); experiment: FACS, 5 ug/mL biotinylated control antibody + streptavidin-PE, Raji cells (Burkitt's); background control
[6] = molecular target: CD37 (Leukocyte Antigen CD37, Tetraspanin-26) on cells (human) (UniProt P11049); experiment: FACS, 5 ug/mL biotinylated control antibody + streptavidin-PE, Mino XCL cells (MCL); background control
[7] = molecular target: CD37 (Leukocyte Antigen CD37, Tetraspanin-26) on cells (human) (UniProt P11049); experiment: FACS, 5 ug/mL biotinylated control antibody + streptavidin-PE, Daudi cells (Burkitt's); background control
[8] = molecular target: CD37 (Leukocyte Antigen CD37, Tetraspanin-26) on cells (human) (UniProt P11049); experiment: FACS, 5 ug/mL biotinylated control antibody + streptavidin-PE, BDCM cells (AML); background control
[9] = molecular target: CD37 (Leukocyte Antigen CD37, Tetraspanin-26) on cells (human) (UniProt P11049); experiment: FACS, 5 ug/mL biotinylated control antibody + streptavidin-PE, DOHH-2 cells (Follicular); background control
[10] = molecular target: CD37 (Leukocyte Antigen CD37, Tetraspanin-26) on cells (human) (UniProt P11049); experiment: FACS, 5 ug/mL biotinylated control antibody + streptavidin-PE, Ramos RR XCL cells (Burkitt's); background control
[11] = molecular target: CD37 (Leukocyte Antigen CD37, Tetraspanin-26) on cells (human) (UniProt P11049); experiment: FACS, 5 ug/mL biotinylated control antibody + streptavidin-PE, Granta-519 cells (MCL); filing calls it high isotype control background binding
[12] = molecular target: CD37 (Leukocyte Antigen CD37, Tetraspanin-26) on cells (human) (UniProt P11049); experiment: FACS, 5 ug/mL biotinylated control antibody + streptavidin-PE, Kasumi-1 cells (AML); background control
[13] = molecular target: CD37 (Leukocyte Antigen CD37, Tetraspanin-26) on cells (human) (UniProt P11049); experiment: FACS, 5 ug/mL biotinylated control antibody + streptavidin-PE, MOLM-13 cells (AML); background control
[14] = molecular target: CD37 (Leukocyte Antigen CD37, Tetraspanin-26) on cells (human) (UniProt P11049); experiment: FACS, 5 ug/mL biotinylated control antibody + streptavidin-PE, MOLT-4 cells (ALL); background control
[15] = molecular target: CD37 (Leukocyte Antigen CD37, Tetraspanin-26) on cells (human) (UniProt P11049); experiment: FACS, 5 ug/mL biotinylated control antibody + streptavidin-PE, WSU-DLCL-2 cells (DLBCL); background control
[16] = molecular target: CD37 (Leukocyte Antigen CD37, Tetraspanin-26) on cells (human) (UniProt P11049); experiment: FACS, 5 ug/mL biotinylated control antibody + streptavidin-PE, Ramos cells (Burkitt's); background control
[17] = molecular target: CD37 (Leukocyte Antigen CD37, Tetraspanin-26) on cells (human) (UniProt P11049); experiment: FACS, 5 ug/mL biotinylated control antibody + streptavidin-PE, SU-DHL-4 cells (DLBCL); background control
[18] = molecular target: CD37 (Leukocyte Antigen CD37, Tetraspanin-26) on cells (human) (UniProt P11049); experiment: FACS, 5 ug/mL biotinylated control antibody + streptavidin-PE, MV-4-11 cells (AML); background control
[19] = molecular target: CD37 (Leukocyte Antigen CD37, Tetraspanin-26) on cells (human) (UniProt P11049); experiment: FACS, 5 ug/mL biotinylated control antibody + streptavidin-PE, Mino cells (MCL); background control
[20] = molecular target: CD37 (Leukocyte Antigen CD37, Tetraspanin-26) on cells (human) (UniProt P11049); experiment: FACS, 5 ug/mL biotinylated control antibody + streptavidin-PE, EoL-1 cells (AML); background control
[21] = molecular target: CD37 (Leukocyte Antigen CD37, Tetraspanin-26) on cells (human) (UniProt P11049); experiment: FACS, 5 ug/mL biotinylated control antibody + streptavidin-PE, RS4-11 cells (ALL); background control
[22] = molecular target: CD37 (Leukocyte Antigen CD37, Tetraspanin-26) on cells (human) (UniProt P11049); experiment: FACS, 5 ug/mL biotinylated control antibody + streptavidin-PE, KG-1 cells (AML); filing calls it high isotype control background binding
[23] = molecular target: CD37 (Leukocyte Antigen CD37, Tetraspanin-26) on cells (human) (UniProt P11049); experiment: FACS, 5 ug/mL biotinylated control antibody + streptavidin-PE, JVM-3 cells (CLL); background control

CD37 (Leukocyte Antigen CD37, Tetraspanin-26) on cells (human), sequence (P11049 whole entry): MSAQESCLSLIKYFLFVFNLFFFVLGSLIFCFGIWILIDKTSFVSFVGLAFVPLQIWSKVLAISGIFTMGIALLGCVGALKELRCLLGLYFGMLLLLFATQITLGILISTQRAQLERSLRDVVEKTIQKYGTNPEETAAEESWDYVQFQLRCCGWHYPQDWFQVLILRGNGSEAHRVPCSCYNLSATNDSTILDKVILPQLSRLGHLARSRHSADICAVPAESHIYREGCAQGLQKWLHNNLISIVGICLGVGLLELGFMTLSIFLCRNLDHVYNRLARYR

Substance “Isotype matched control antibody (biotinylated)” has a Geometric Mean (fluorescence) [1] of 967, a Geometric Mean (fluorescence) [2] of 324 and a Geometric Mean (fluorescence) [3] of 1010. The Geometric Mean (fluorescence) [4] was 4220, the Geometric Mean (fluorescence) [5] was 1760 and the Geometric Mean (fluorescence) [6] was 200. The Geometric Mean (fluorescence) [7] was 2040, the Geometric Mean (fluorescence) [8] was 290 and the Geometric Mean (fluorescence) [9] was 840. The Geometric Mean (fluorescence) [10] was 693, the Geometric Mean (fluorescence) [11] was 15400 and the Geometric Mean (fluorescence) [12] was 188. It also gave a Geometric Mean (fluorescence) [13] of 240, a Geometric Mean (fluorescence) [14] of 1310 and a Geometric Mean (fluorescence) [15] of 1200. It also gave a Geometric Mean (fluorescence) [16] of 1150, a Geometric Mean (fluorescence) [17] of 1050 and a Geometric Mean (fluorescence) [18] of 247. It also gave a Geometric Mean (fluorescence) [19] of 1480, a Geometric Mean (fluorescence) [20] of 189 and a Geometric Mean (fluorescence) [21] of 155. For the same substance, the Geometric Mean (fluorescence) [22] was 8190 and the Geometric Mean (fluorescence) [23] was 1930.
